pKd: −log10 of the molar value.

Results on 37 sequences are retold here after the Immune Epitope Database (IEDB).

Among the targets are HLA-A*11:01; HLA-A*03:01; HLA-A*68:01; HLA-A*31:01; HLA-A*33:01.
Holding throughout (assay): IEDB peptide-MHC binding, purified MHC/competitive/radioactivity; filed as Kd, often an IC50 or EC50 that approximates it; ≥ and ≤ were set here for values at or beyond the usual limits of such assays
[1] abbreviates: source organism: SARS coronavirus Tor2.
The mark [2] stands for this setting: source organism: Dengue virus 4 Philippines/H241/1956.
Setting [3] is: source organism: Vaccinia virus WR.
The mark [4] stands for this setting: source organism: Dengue virus 3 Martinique/1243/1999.
Setting [5] is: source organism: Dengue virus 1 Brazil/97-11/1997.
Where [6] appears, read: source organism: Dengue virus 2 Jamaica/1409/1983.
Where [7] appears, read: source organism: Lassa virus Josiah.
Setting [8] is: source organism: Dengue virus 1 Nauru/West Pac/1974.

With AMPNLYKMQR, the pKd was 6.00 with HLA-A*11:01 (setting [1]); 5.98 with HLA-A*03:01 (setting [1]); 5.71 with HLA-A*68:01 (setting [1]); 6.62 with HLA-A*31:01 (setting [1]); 4.93 with HLA-A*33:01 (setting [1]).

In the case of ATTILTPMLR, the pKd in the experiment with HLA-A*11:01 (setting [2]) is 6.89; with HLA-A*68:01 (setting [2]), 6.55; with HLA-A*31:01 (setting [2]) it was 7.11.

On to AVNKSNKPLK, for which the pKd with HLA-A*11:01 (setting [3]) is 6.83; with HLA-A*03:01 (setting [3]), 5.96; with HLA-A*68:01 (setting [3]) it was 5.22; with HLA-A*31:01 (setting [3]) it was 5.81; with HLA-A*33:01 (setting [3]), at most 4.33.

As for CIRNASKFVY, the pKd with HLA-A*11:01 (setting [3]) is 4.70; with HLA-A*03:01 (setting [3]), 4.76; with HLA-A*68:01 (setting [3]), at most 4.43; with HLA-A*31:01 (setting [3]), at most 4.15; with HLA-A*33:01 (setting [3]) it was at most 4.15.

For the sequence CMTSCCSCLK, the pKd with HLA-A*11:01 (setting [1]) was 7.09; in the experiment with HLA-A*03:01 (setting [1]), 7.20; in the experiment with HLA-A*68:01 (setting [1]), 7.40; in the experiment with HLA-A*31:01 (setting [1]) it was 6.10; in the experiment with HLA-A*33:01 (setting [1]) it was 5.73.

As for CVDIFTEGK, the negative-log Kd (pKd) with HLA-A*11:01 (setting [3]) was 7.11; in the experiment with HLA-A*03:01 (setting [3]), 5.43; with HLA-A*68:01 (setting [3]), 7.73; with HLA-A*31:01 (setting [3]), 4.79; in the experiment with HLA-A*33:01 (setting [3]), at most 4.11.

DFLKDDTLSK: the pKd with HLA-A*11:01 (setting [3]) was 5.24; in the experiment with HLA-A*03:01 (setting [3]), 4.82; in the experiment with HLA-A*68:01 (setting [3]), 4.97; in the experiment with HLA-A*31:01 (setting [3]) it was at most 4.15; with HLA-A*33:01 (setting [3]), 5.10.

For the sequence DFRDYQSYR, the pKd with HLA-A*11:01 (setting [3]) is 4.87; with HLA-A*03:01 (setting [3]), at most 4.11; with HLA-A*68:01 (setting [3]) it was 5.99; in the experiment with HLA-A*31:01 (setting [3]) it was 7.13; with HLA-A*33:01 (setting [3]), 9.08.

In the case of DFWKLVDRER, in the experiment with HLA-A*33:01 (setting [4]), the pKd was 8.82.

For DIFMRDWNSK, the pKd was 5.37 with HLA-A*11:01 (setting [3]); at most 4.15 with HLA-A*03:01 (setting [3]); 7.13 with HLA-A*68:01 (setting [3]); 4.91 with HLA-A*31:01 (setting [3]); 6.26 in the experiment with HLA-A*33:01 (setting [3]).

Regarding DILSIIDAK, the negative-log Kd (pKd) is 6.37 with HLA-A*11:01 (setting [3]); 6.06 in the experiment with HLA-A*03:01 (setting [3]); 7.30 with HLA-A*68:01 (setting [3]); at most 4.11 in the experiment with HLA-A*31:01 (setting [3]); 6.05 with HLA-A*33:01 (setting [3]).

Take DLLFNEKLK: the pKd with HLA-A*11:01 (setting [3]) was 6.73; with HLA-A*03:01 (setting [3]), 5.72; in the experiment with HLA-A*68:01 (setting [3]) it was 7.53; in the experiment with HLA-A*31:01 (setting [3]) it was 5.09; in the experiment with HLA-A*33:01 (setting [3]), 6.13.

DQAMTQMYK: the pKd with HLA-A*11:01 (setting [1]) was 6.06; with HLA-A*03:01 (setting [1]) it was 5.59; in the experiment with HLA-A*68:01 (setting [1]) it was 6.92; with HLA-A*31:01 (setting [1]), 5.16; with HLA-A*33:01 (setting [1]) it was 5.07.

As to DSYTQMCDHR, the negative logarithm of the Kd (pKd) with HLA-A*33:01 (setting [5]) is 6.47.

Take EWLWRTLGR: the pKd with HLA-A*33:01 (setting [4]) was 8.08.

For IIPALFEPER, the pKd in the experiment with HLA-A*68:01 (setting [5]) is 7.12.

KKKTPRMCTR: the pKd with HLA-A*31:01 (setting [6]) was 6.11.

As for KLRPRWLDAR, the negative-log Kd (pKd) with HLA-A*31:01 (setting [5]) is 9.39.

Turning to KTSSVARLR, the pKd with HLA-A*11:01 (source organism: Lymphocytic choriomeningitis virus (strain Armstrong)) was 7.14.

Turning to LIKNAQTPR, the negative logarithm of the Kd (pKd) with HLA-A*31:01 (setting [2]) is 7.87.

For LITGNMSFR, the pKd is 7.58 with HLA-A*68:01 (setting [6]) and 5.88 with HLA-A*33:01 (setting [6]).

As to LLLTSSQQK, in the experiment with HLA-A*03:01 (setting [6]), the pKd is 7.81.

As to LTTLSRTSK, the negative logarithm of the Kd (pKd) with HLA-A*11:01 (setting [6]) is 6.67.

In the case of LVAPSYGMR, in the experiment with HLA-A*68:01 (setting [2]), the pKd is 8.42.

Take PVYLMTLMK: the negative-log Kd (pKd) is 6.71 in the experiment with HLA-A*11:01 (setting [2]) and 8.41 with HLA-A*03:01 (setting [2]).

Regarding QAAVLMGLGK, the pKd in the experiment with HLA-A*68:01 (setting [2]) was 7.22.

On to RASLIPDATH, for which the pKd in the experiment with HLA-A*11:01 (setting [7]) was at most 4.23; in the experiment with HLA-A*68:01 (setting [7]), 4.71; with HLA-A*31:01 (setting [7]) it was 5.70; with HLA-A*33:01 (setting [7]), at most 4.29.

For the sequence RMCTREEFTR, the pKd is 8.24 with HLA-A*31:01 (setting [6]) and 6.18 with HLA-A*33:01 (setting [6]).

As to RMIVGKNER, the pKd in the experiment with HLA-A*31:01 (setting [4]) is 7.79.

For the sequence RSTPFNMLKR, in the experiment with HLA-A*31:01 (setting [6]), the negative logarithm of the Kd (pKd) was 5.86.

For SLLTCAKFK, the pKd in the experiment with HLA-A*03:01 (setting [5]) was 7.68.

On to STYGWNIVK, for which the negative-log Kd (pKd) with HLA-A*03:01 (setting [4]) is 8.32.

Consider TAKLRWFVER, for which the pKd in the experiment with HLA-A*31:01 (setting [5]) was at most 4.55; with HLA-A*33:01 (setting [5]), 7.47.

As to TTILDVDLR, the pKd with HLA-A*68:01 (setting [2]) was 7.45.

VTLFFLSGR: the pKd is 5.13 in the experiment with HLA-A*31:01 (setting [8]) and 7.01 in the experiment with HLA-A*33:01 (setting [8]).

Turning to VVRPPFNMLK, the negative-log Kd (pKd) with HLA-A*11:01 (setting [2]) is 7.15; in the experiment with HLA-A*03:01 (setting [2]) it was 8.35.

Take VVYDAKFEK: the pKd was 7.37 in the experiment with HLA-A*11:01 (setting [5]) and 8.15 with HLA-A*03:01 (setting [5]).
